Biological target: T1, CHORDII domain of cress (Arabidopsis thaliana) Rar1 (Arabidopsis thaliana, UniProt Q9SE33 149-221)
T1 chain: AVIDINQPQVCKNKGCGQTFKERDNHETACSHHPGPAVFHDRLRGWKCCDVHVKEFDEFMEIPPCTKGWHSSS
Test: ITC

Kd: 22.3 µM
B1: N-terminal domain of barley (Hordeum vulgare) Hsp90 (domain or fragment)
chain: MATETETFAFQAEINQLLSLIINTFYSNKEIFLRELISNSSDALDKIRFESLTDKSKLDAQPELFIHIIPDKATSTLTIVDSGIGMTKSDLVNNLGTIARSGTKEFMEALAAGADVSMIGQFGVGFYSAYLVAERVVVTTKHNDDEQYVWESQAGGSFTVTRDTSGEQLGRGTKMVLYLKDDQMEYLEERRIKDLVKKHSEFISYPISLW

Source: article PMC2935968 (2010)
